According to patent US7741283B2, “Compositions and methods for inhibiting cell proliferation” (St. Louis University, priority 2003, dated 2010):

What was measured:
LRP-1 [1] = assay: 125I-α2M* binding to Mv1Lu cells at pH 7.4; parameters: species or system mink; conditions: 10 μM protein, pH 7.4, Mv1Lu
acidic pH binding sites [2] = target: T1, acidic pH binding sites (Mus musculus, UniProt P14824); assay: Specific binding of 125I-ligands to MEF cells at acidic pH; conditions: 10 μM protein, pH 5.5, MEF
T1 sequence (P14824 2-673): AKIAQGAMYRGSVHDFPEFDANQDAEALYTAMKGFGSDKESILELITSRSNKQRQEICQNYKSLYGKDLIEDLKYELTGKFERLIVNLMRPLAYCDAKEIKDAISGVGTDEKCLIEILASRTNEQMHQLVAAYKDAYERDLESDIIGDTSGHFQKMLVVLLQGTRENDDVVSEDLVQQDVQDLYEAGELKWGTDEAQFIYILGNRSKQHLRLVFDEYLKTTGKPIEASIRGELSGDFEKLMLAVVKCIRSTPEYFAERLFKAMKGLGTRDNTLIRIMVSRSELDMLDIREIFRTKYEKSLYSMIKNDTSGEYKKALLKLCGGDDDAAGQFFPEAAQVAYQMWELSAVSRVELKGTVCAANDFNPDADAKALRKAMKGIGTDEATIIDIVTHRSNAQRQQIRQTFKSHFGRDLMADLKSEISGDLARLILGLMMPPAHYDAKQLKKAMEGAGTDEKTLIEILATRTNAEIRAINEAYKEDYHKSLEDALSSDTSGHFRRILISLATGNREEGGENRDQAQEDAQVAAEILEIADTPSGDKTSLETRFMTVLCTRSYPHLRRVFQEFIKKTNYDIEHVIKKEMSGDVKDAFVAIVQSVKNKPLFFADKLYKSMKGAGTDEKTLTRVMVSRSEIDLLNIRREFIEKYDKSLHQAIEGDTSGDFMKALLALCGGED

[3] = test system: TβR-V purified from bovine liver plasma membranes; assay: 125I-IGFBP-3 / 125I-TGF-β1 affinity labeling of purified TβR-V; assay type: binding; conditions: DSS, β1^25(41-65) 20 μM, RAP 10-40 μg/ml, α2M* 100 nM, lactoferrin 100 nM
acidic pH binding sites [4] = target: acidic pH binding sites (Neogale vison, UniProt A0A8C7BSJ2); assay: Specific binding of 125I-ligands to Mv1Lu cells at acidic pH; parameters: species or system mink
LRP-1 [5] = target: T2, LRP-1 (Mus musculus, UniProt Q91ZX7); assay: 125I-α2M* binding to MEF cells at pH 7.4; conditions: 10 μM protein, pH 7.4, MEF
T2 construct: endogenous in cells; host or cells: MEF (mouse embryonic fibroblasts)

acidic pH binding sites [6] = target: T1, acidic pH binding sites; assay: Specific binding of 125I-ligands to PEA-13 cells at acidic pH; parameters: endogenous in cells; host or cells: PEA-13 (LRP-1-deficient mouse embryonic fibroblasts); conditions: 10 μM protein, pH 5.5, PEA-13
IRS-2 = assay: 32P metabolic labeling and immunoprecipitation of IRS-2, Mv1Lu cells; assay type: cell-based, mink; conditions: Mv1Lu; for Induction of specific dephosphorylation (mobility change) of 32P-labeled IRS-2: IGFBPs 1 μg/ml, TGF-β1 20 pM
Mv1Lu cells = assay: [methyl-3H] thymidine incorporation (DNA synthesis), Mv1Lu cells; assay type: cell-based, mink; conditions: Mv1Lu cells

Chain of acidic pH binding sites (Neogale vison, UniProt A0A8C7BSJ2) (A0A8C7BSJ2 entry or part of it): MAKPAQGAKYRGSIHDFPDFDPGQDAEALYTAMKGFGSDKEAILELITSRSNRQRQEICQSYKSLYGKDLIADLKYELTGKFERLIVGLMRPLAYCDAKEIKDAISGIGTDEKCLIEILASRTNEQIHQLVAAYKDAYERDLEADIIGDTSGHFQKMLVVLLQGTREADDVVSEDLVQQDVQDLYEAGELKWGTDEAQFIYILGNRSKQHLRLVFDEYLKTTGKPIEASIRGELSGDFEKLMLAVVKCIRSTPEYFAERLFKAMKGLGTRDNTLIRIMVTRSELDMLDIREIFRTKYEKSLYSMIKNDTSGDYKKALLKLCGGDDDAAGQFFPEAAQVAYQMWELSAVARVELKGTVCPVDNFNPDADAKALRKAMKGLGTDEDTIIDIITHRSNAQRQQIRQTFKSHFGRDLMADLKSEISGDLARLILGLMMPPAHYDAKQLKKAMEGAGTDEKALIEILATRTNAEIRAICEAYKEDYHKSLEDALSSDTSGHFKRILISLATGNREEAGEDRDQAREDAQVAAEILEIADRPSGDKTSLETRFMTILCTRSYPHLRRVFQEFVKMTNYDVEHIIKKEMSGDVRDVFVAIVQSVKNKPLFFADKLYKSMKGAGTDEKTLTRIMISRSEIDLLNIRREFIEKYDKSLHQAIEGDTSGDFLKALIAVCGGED
T2 sequence (Q91ZX7 20-4545): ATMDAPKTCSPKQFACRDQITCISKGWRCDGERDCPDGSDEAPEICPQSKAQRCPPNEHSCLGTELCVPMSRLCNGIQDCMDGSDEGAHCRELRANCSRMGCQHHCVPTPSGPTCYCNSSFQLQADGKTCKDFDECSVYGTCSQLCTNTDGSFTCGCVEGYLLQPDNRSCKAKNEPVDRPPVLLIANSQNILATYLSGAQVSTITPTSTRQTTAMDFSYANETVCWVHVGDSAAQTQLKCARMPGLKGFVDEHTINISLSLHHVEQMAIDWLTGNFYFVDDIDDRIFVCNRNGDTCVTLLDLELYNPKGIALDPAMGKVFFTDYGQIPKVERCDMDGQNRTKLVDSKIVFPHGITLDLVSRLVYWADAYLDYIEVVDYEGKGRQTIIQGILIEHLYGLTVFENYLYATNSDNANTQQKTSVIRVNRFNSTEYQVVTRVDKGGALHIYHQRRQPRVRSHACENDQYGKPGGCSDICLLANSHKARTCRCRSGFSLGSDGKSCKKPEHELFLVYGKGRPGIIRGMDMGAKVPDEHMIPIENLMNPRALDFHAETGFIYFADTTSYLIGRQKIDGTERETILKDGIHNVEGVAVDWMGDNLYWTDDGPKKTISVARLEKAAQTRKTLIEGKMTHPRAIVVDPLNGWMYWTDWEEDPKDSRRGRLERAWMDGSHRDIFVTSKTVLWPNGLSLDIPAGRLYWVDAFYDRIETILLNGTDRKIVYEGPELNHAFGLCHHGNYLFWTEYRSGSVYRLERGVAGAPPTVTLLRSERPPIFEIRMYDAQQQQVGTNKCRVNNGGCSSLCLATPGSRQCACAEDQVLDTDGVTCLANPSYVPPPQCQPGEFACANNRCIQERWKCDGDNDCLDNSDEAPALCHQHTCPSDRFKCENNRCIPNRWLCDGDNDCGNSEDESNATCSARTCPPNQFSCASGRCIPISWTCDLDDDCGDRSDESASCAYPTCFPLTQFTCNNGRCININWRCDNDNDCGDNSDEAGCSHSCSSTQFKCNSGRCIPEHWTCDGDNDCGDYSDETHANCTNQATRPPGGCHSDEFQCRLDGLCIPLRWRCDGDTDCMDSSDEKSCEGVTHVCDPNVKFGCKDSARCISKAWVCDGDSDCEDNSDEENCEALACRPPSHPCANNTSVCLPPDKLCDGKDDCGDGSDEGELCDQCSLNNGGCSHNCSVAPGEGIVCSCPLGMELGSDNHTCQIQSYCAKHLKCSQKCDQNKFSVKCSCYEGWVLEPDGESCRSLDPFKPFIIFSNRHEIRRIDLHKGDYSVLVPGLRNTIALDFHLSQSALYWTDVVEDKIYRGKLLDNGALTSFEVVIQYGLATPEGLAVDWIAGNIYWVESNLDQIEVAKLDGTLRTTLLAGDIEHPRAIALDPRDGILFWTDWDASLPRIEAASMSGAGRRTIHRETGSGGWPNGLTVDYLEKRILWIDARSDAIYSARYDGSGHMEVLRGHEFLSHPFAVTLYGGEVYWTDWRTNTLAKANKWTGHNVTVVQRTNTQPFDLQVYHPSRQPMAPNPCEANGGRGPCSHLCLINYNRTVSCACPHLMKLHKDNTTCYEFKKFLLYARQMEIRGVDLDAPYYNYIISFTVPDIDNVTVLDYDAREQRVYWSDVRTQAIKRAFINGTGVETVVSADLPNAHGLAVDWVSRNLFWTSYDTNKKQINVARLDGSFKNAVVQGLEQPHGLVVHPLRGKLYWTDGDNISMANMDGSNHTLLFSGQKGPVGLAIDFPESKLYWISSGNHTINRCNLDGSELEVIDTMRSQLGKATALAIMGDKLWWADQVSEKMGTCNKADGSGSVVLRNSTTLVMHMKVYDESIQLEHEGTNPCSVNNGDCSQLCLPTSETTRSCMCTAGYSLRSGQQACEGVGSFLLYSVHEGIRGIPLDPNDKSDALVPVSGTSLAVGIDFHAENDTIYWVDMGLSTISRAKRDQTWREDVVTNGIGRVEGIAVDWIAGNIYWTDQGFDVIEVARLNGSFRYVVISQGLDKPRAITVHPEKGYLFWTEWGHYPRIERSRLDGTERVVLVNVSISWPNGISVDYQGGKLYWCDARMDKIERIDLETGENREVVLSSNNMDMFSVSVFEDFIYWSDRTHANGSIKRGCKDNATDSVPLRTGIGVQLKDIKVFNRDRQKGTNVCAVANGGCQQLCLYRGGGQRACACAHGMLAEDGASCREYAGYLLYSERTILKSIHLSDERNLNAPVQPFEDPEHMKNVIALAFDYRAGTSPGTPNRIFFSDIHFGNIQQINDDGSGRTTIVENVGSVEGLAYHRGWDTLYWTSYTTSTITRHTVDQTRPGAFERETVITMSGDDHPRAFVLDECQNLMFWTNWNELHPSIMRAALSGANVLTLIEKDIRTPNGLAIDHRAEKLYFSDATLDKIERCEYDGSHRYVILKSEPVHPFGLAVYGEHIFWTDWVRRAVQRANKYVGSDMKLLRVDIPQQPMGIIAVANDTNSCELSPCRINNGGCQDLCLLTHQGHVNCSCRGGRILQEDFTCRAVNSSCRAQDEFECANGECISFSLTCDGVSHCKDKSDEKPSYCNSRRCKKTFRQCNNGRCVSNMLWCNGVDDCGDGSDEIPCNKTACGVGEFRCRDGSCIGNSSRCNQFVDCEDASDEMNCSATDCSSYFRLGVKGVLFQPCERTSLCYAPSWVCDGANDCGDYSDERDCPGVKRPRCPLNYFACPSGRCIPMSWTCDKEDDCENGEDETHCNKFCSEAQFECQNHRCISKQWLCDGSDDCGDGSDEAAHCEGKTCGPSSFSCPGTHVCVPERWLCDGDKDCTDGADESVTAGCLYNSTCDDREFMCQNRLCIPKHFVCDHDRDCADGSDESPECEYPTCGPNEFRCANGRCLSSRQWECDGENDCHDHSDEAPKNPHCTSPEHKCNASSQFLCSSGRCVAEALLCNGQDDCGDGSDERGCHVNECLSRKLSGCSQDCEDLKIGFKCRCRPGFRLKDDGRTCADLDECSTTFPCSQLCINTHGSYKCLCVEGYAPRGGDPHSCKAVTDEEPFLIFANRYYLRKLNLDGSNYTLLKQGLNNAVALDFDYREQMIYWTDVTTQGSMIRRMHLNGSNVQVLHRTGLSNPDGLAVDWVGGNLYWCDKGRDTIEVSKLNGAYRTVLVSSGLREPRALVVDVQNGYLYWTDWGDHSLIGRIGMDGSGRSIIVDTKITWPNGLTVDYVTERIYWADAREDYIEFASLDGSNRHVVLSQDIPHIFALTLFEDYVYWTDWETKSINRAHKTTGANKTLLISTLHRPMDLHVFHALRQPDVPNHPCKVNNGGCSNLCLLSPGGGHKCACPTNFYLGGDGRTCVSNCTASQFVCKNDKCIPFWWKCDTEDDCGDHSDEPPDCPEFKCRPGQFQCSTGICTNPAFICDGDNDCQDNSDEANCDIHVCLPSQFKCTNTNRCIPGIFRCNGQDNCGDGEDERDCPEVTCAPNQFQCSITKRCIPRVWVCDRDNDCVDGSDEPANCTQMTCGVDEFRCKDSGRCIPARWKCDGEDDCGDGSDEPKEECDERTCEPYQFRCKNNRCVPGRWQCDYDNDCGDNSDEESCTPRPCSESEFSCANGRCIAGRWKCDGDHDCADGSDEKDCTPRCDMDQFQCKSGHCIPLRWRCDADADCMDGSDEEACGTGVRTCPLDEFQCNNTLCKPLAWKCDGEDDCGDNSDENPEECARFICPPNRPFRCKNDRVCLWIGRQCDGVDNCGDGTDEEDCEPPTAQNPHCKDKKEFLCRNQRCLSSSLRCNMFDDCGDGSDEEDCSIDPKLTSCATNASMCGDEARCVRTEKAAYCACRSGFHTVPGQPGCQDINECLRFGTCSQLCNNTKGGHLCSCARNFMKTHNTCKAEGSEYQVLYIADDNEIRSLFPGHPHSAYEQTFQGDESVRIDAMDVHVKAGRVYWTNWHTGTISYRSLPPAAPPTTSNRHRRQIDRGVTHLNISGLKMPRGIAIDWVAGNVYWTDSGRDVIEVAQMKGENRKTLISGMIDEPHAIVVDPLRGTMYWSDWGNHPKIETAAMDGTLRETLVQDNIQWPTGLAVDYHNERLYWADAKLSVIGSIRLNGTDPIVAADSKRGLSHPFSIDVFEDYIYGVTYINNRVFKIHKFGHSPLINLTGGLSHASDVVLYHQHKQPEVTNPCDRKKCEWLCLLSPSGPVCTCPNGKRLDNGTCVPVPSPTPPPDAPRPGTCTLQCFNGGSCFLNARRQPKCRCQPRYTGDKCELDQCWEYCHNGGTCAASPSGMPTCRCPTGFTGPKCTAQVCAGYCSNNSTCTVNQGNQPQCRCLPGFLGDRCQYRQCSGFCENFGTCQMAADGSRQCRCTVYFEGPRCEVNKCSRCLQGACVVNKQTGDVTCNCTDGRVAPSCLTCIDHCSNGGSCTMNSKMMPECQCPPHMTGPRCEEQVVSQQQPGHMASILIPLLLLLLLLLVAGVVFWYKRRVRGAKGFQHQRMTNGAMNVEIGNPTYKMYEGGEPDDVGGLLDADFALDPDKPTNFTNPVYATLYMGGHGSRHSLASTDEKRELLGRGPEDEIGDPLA

B1: lactoferrin: bovine lactoferrin, an LRP-1 ligand (protein, UniProt P24627 20-708, looked up)
Lactotransferrin: APRKNVRWCTISQPEWFKCRRWQWRMKKLGAPSITCVRRAFALECIRAIAEKKADAVTLDGGMVFEAGRDPYKLRPVAAEIYGTKESPQTHYYAVAVVKKGSNFQLDQLQGRKSCHTGLGRSAGWIIPMGILRPYLSWTESLEPLQGAVAKFFSASCVPCIDRQAYPNLCQLCKGEGENQCACSSREPYFGYSGAFKCLQDGAGDVAFVKETTVFENLPEKADRDQYELLCLNNSRAPVDAFKECHLAQVPSHAVVARSVDGKEDLIWKLLSKAQEKFGKNKSRSFQLFGSPPGQRDLLFKDSALGFLRIPSKVDSALYLGSRYLTTLKNLRETAEEVKARYTRVVWCAVGPEEQKKCQQWSQQSGQNVTCATASTTDDCIVLVLKGEADALNLDGGYIYTAGKCGLVPVLAENRKSSKHSSLDCVLRPTEGYLAVAVVKKANEGLTWNSLKDKKSCHTAVDRTAGWNIPMGLIVNQTGSCAFDEFFSQSCAPGADPKSRLCALCAGDDQGLDKCVPNSKEKYYGYTGAFRCLAEDVGDVAFVKNDTVWENTNGESTADWAKNLNREDFRLLCLDGTRKPVTEAQSCHLAVAPNHAVVSRSDRAAHVKQVLLHQQALFGKNGKNCPDKFCLFKSETKNLLFNDNTECLAKLGGRPTYEEYLGTEYVTAIANLKKCSTSPLLEACAFLTR
LRP-1 [1]
  ^125I-α2M* binding: did not have a significant effect
Acidic pH binding sites [2]
  Specific binding of ^125I-α2M*: completely blocked
[3]; 0.1 nM 125I-TGF-β1, […] 0° C.
  ^125I-TGF-β1 binding to purified TβR-V: did not have a significant effect
[3]; 10 nM 125I-IGFBP-3, […] 0° C.
  ^125I-IGFBP-3 binding to purified TβR-V: did not have a significant effect
Acidic pH binding sites [4]; 10 μM protein, pH 5.5, Mv1Lu
  Specific binding of ^125I-α2M*: completely blocked
Acidic pH binding sites [4]; Mv1Lu cells, pH 5 or 6, read-out: IC50, inhibition of ^125I-α2M* binding to cells
  IC50: ~50 nM
LRP-1 [5]
  ^125I-α2M* binding: did not have a significant effect
Acidic pH binding sites [6]
  Specific binding of ^125I-α2M*: completely blocked

B2: IGFBP-1: IGFBP known not to bind to the IGFBP-3 receptor (protein)
chain: APWQCAPCSAEKLALCPPVSASCSEVTRSAGCGCCPMCALPLGAACGVATARCARGLSCRALPGEQQPLHALTRGQGACVQESDASAPHAAEAGSPESPESTEITEEELLDNFHLMAPSEEDHSILWDAISTYDGSKALHVTNIKKWKEPCRIELYRVVESLAKAQETSGEEISKFYLPNCNKNGFYHSRQCETSMDGEAGLCWCVYPWNGKRIPGSPEIRGDPNCQIYFNVQN
IRS-2
  Induction of specific dephosphorylation (mobility change) of 32P-labeled IRS-2: did not induce

B3: (Q^3A^4Y^15L^16) IGF-I: an IGF-I analog which has a low affinity for IGFBP-3 (protein, UniProt P05019 49-118, looked up, variant E3Q T4A Q15Y F16L)
Insulin-like growth factor 1: GPQALCGAELVDALYLVCGDRGFYFNKPTGYGSSSRRAPQTGIVDECCFRSCDLRRLEMYCAPLKPAKSA
modifications: Insulin-like growth factor I
IRS-2; IGFBP-3 1 μg/ml […] then factor 10 nM (TGF-β1 20 pM) 0.5 hr
  Blocking of IGFBP-3-induced specific dephosphorylation of IRS-2 by growth factors/cytokines: blocked
Mv1Lu cells
  Blocking of IGFBP-3-induced growth inhibition: completely blocked

B4: IGFBP-2: IGFBP known not to bind to the IGFBP-3 receptor (protein, UniProt P18065 36-325, looked up)
Insulin-like growth …: AEVLFRCPPCTPERLAACGPPPVAPPAAVAAVAGGARMPCAELVREPGCGCCSVCARLEGEACGVYTPRCGQGLRCYPHPGSELPLQALVMGEGTCEKRRDAEYGASPEQVADNGDDHSEGGLVENHVDSTMNMLGGGGSAGRKPLKSGMKELAVFREKVTEQHRQMGKGGKHHLGLEEPKKLRPPPARTPCQQELDQVLERISTMRLPDERGPLEHLYSLHIPNCDKHGLYNLKQCKMSLNGQRGECWCVNPNTGKLIQGAPTIRGDPECHLFYNEQQEARGVHTQRMQ
IRS-2
  Induction of specific dephosphorylation (mobility change) of 32P-labeled IRS-2: did not induce
